What all share (format): cell-based, rat
One test deals with PLC. The test can be described thus: Inositol phosphate production (PLC activation) in cardiomyocyte cultures. As for the experimental part:
rPMT activates PLC. Cardiomyocyte cultures were incubated in media containing 3 μCi/ml [^3H] myoinositol for 96 hr, with 400 ng/ml rPMT for the indicated intervals at the end of this interval (Panel A) or the indicated concentration of rPMT included in the culture medium during the final 24 hr of culture (Panel B). This was followed by 30 min in the presence of 10 mM LiCl to inhibit the hydrolysis of inositol phosphate metabolites. Results are expressed as cpm over basal (mean±SEM; n=3) from a single experiment, and are representative of results obtained in 3 separate culture preparations.
Cardiomyocytes grown in six-well plates were labeled with 3 μCi/ml [^3H]myoinositol for 96 hr. Treatment with rPMT was during the final 24 hr of this interval. Cells were washed to remove unincorporated radioisotope and then incubated for an additional 20 min with HEPES-buffered saline containing 10 mM LiCl. Cells were lysed with 1.05 mls of chloroform/methanol/6M HCl (500:1000:3) and harvested, and lipids were extracted for 30 min at room temperature. 1.05 mls of chloroform/water (1:2) were added, and the mixture was vortexed and centrifuged at 2000 g for 5 min to separate the phases. The aqueous phase was transferred to Dowex anion-exchange columns, and inositol phosphates were eluted sequentially according to standard methods as described previously (13).

Test [1] relates to cardiomyocytes. The test can be described thus: TUNEL assay of apoptosis in cardiomyocyte cultures. The procedure: rPMT increases H2O2-induced apoptosis in cardiomyocyte cultures. Cells were treated without or with rPMT (400 ng/ml) for 24 hr followed by H202 (500 μM) for 24 hr. The percentage of cells undergoing apoptosis was measured by TUNEL assay as described in Methods below. Data are from a single experiment and are representative of results obtained on 3 separate culture preparations.
TUNEL staining was performed for detection of apoptotic cells according to manufacturer's instructions (Boehringer). Approximately 500 cardiomyocytes were imaged by fluorescence microscopy and the number of cells that scored TUNEL-positive is presented as a percentage of total.

A further test has as its system p38-MAPK. Put plainly: Phospho-p38 MAP kinase Western blot in cardiomyocytes. As for the experimental part:
rPMT promotes the activation of ERK1/2, JNK and p38-MAPK cascades. Incubations were for 24 hr in the presence of the indicated concentrations of rPMT. PMA (100 nM, 5 min) and sorbitol ([…], 5 min) were included as positive controls. Cell lysates were subjected to SDS-PAGE followed by Western blotting as described in Methods below. Phosphorylated forms of ERK1/2 (A), p38 MAP kinase (B) or JNK (C) were detected by specific anti-phospho-ERK1/2, -p38 MAP kinase or -JNK antibodies, respectively. Blots were stripped and subjected to immunoblot analysis with total ERK1/2 or p38 MAP kinase to normalize for minor variations in protein loading (Panels A and B). Top: representative autoradiograms (with each lane from a single gel exposed for the same duration). Bottom: quantification of each series of experiments (n=3).
Specific immunoreactivity for individual PKC isoforms was quantified according to methods described previously. For assays of MAPKs and AKT, cells were exposed to test agents as indicated in individual experimental protocols, washed three times with ice-cold calcium/magnesium-free Dulbecco's PBS (pH 7.1), scraped into ice-cold extraction buffer [20 mM β-glycerophosphate pH 7.5, 20 mM sodium fluoride, 2 mM EDTA, 0.2 mM sodium vanadate, 10 μg/ml aprotinin, 25 μg/ml leupeptin, 50 μg/ml PMSF, and 0.3% (v/v) β-mercaptoethanol], lysed by sonication, and centrifuged at 10,000 g for 10 min at 4° C. The supernatant was diluted in SDS-PAGE sample buffer, boiled for 5 min, and stored at −70° C. Western blot analysis was performed with antibodies that are selective for the phosphorylated (activated) forms of ERK1/2, p38-MAPK, JNK, AKT, and pan-PKC according to manufacturer's instructions. For each panel in each Figure, the results are from a single gel exposed for a uniform duration. Bands were detected by enhanced chemiluminescence and blots were quantified by laser scanning densitometry.

Test [2] deals with cardiomyocytes. The test can be described thus: Protein synthesis ([3H]phenylalanine incorporation) in cardiomyocytes. To be noted: rPMT 400 ng/ml or NE 10 μM, 48 hr, serum-free. The procedure:
rPMT mimics the effect of norepinephrine to promote cardiomyocyte hypertrophy. Cardiomyocytes were cultured in serum-free medium without or with rPMT (400 ng/ml) or norepinephrine (NE, 10 μM) for 48 hr. Cardiomyocytes were fixed, permeabilized, and stained with monoclonal anti-α-actinin sarcomeric (Panel A, magnification×100) or subjected to Northern blot analysis for measurements of steady-state ANF mRNA expression (Panel B). Effects of rPMT (black bars) and NE (gray bars) vs. vehicle (white bars) on sarcomeric organization (Panel C), cell size (Panel D), and protein synthesis (Panel E) are illustrated (n=3 for each).
As a second index of cardiomyocyte growth, relative rates of protein synthesis were measured as radiolabeled phenylalanine incorporation into cell protein. Cells were stimulated in serum-free medium with agonists (or vehicle as control) for 48 hr at 37° C. The medium was replaced with serum-free medium containing [^3H]phenylalanine (0.1 μCi/ml) and non-radioactive phenylalanine (0.3 mM, to minimize variations in the specific activity of the precursor pool responsible for protein synthesis) during the final 24 hr of stimulation. Cells were rinsed with PBS and incubated in 10% trichloroacetic acid for 30 min on ice. […] Aliquots of the SDS-soluble protein were counted in 5 ml of scintillant.

One molecule from patent US20030134774A1, “Methods for inhibiting cardiac disorders” (priority 2001, published 2003) can be followed below.

B1: rPMT: recombinant Pasteurella multocida toxin, a Gαq agonist used as pharmacological probe (protein, UniProt P17452 1-1285, looked up)
Dermonecrotic toxin: MKTKHFFNSDFTVKGKSADEIFRRLCTDHPDKQLNNVKWKEVFINRFGQMMLDTPNPRKIVEKIINEGLEKQGLKNIDPETTYFNIFSSSDSSDGNVFHYNSLSESYRVTDACLMNIFVERYFDDWDLLNSLASNGIYSVGKEGAYYPDHDYGPEYNPVWGPNEQIYHSRVIADILYARSVWDEFKKYFMEYWQKYAQLYTEMLSDTFLAMAIQQYTRQTLTDEGFLMVCNTYYGNKEEVQITLLDIYGYPSTDIICIEQKGLPTPKVILYIPGGTQPFVEFLNTDDLKQWIAWHLKDNKHMVAFRKHFSLKQRQEGETFTGIDKALQYIAEESPEWPANKYILYNPTHLETENLFNIMMKRTEQRMLEDSDVQIRSNSEATRDYALSLLETFISQLSAIDMLVPAVGIPINFALSATALGLSSDIVVNGDSYEKRKYGIGSLVQSALFTGINLIPVISETAEILSSFSRTEEDIPAFFTEEQALAQRFEIVEEELHSISPDDPPREITDENLHKIRLVRLNNENQPLVVLRRLGGNKFIRIEPITFQEIKGSLVSEVINPVTNKTYYVSNAKLLGGSPYSPFRIGLEGVWTPEVLKARASVIGKPIGESYKRILAKLQRIHNSNILDERQGLMHELMELIDLYEESQPSSERLNAFRELRTQLEKALYLPEMEALKKQILQIPNKGSGAARFLLRTAMNEMAGKTSESTADLIRFALQDTVISAPFRGYAGAIPEAIDFPVKYVIEDISVFDKIQTNYWELPAYESWNEGSNSALLPGLLRESQSKGMLSKCRIIENSLYIGHSYEEMFYSISPYSNQVGGPYELYPFTFFSMLQEVQGDLGFEQAFATRNFFNTLVSDRLSLMENTMLLTESFDYTPWDAIYGDINYDEQFAAMSINERIEKCMNTYRGVAFQNSSKSIDFFLNNLTTFIDNGLTEIAISDLPYDIVQQEISQFLQGSNEWKTLDAMLFNLDKGDINGAFRKLLQSAKDNNIKFRAIGHSDNSVPPFNNPYKSLYYKGNIIAEAIEKLDREGQKFVVFADSSLLNSTPGTGRPMPGLVQYLKIPATVVDSDGAWQFLPDVASSRVPIEVTELENWQVLTPPQGKILGLKQFKLTAGFPTEQSRLPLLENSVSEDLREELMQKIDAIKNDVKMNSLVCMEAGSCDSVSPKVAARLKDMGLEAGMGASITWWRREGGMEFSHQMHTTASFKFAGKEFAVDASHLQFVHDQLDTTILILPVDDWALEIAQRNRAINPFVEYVSKTGNMLALFMPPLFTKPRLTRAL
For B1, in the test on PLC (at 24 hr, batches vary), the “toxin concentration giving maximal activation of inositol phosphate accumulation” value is 400 ng/mL. Moreover, in the test with PLC (cardiomyocytes), the inositol phosphate accumulation result is listed as “promotes inositol phosphate accumulation”. Besides, in the test on PLC (cardiomyocytes, 400 ng/ml), the “time at which the inositol phosphate response is detectable” value was determined as 1 h and the “time at which the inositol phosphate response is maximal” value was 48 h. In the test on cardiomyocytes [1] (rPMT 400 ng/ml 24 hr followed by H2O2 500 μM 24 hr), the “effect on H2O2-induced apoptosis” value was “augmented”. Further, the “number of TUNEL-positive cells” value in the test on cardiomyocytes [1] (serum-free conditions for 48 hr) was “small increase”. Besides, in the test on p38-MAPK, the “expression of total p38-MAPK protein” value is given as “does not significantly alter”. Further, in the test with p38-MAPK (24 hr, indicated concentrations), the “signaling through the p38-MAPK cascade (phosphorylation of terminal kinase)” value was “dose-dependent increases”. Besides, the “time at which p38-MAPK activation is detectable” value in the test on p38-MAPK (increased progressively for 24 hr) was found to be 1 h. In addition, the “magnitude of p38-MAPK activation” value in the test with p38-MAPK (rPMT 24 hr, sorbitol 5 min positive control) was “more modest”. Further, the “[3H]phenylalanine incorporation (protein synthesis)” value in the test with cardiomyocytes [2] was “enhance [^3H]phenylalanine incorporation”.
